Data as given in PMC10979912.
Each block holds one substance with its values, some of them ahead of it.

Target: Tau (2N4R Tau; Tau(291–391)) 2-441 (UniProt P10636)
Assay: solid-phase ELISA, immobilised fragment, soluble Tau
Conditions: reference: unmodified (WT) Tau(291–391)

- binding against the reference (sites S305): weaker
Substance: Tau (2N4R Tau; Tau(291–391)) 291-391 (from UniProt P10636-8) pS305 Tau(291–391)

- binding against the reference (sites S352): weaker
Substance: Tau (2N4R Tau; Tau(291–391)) 291-391 (from UniProt P10636-8) pS352 Tau(291–391)

- binding against the reference (sites S356): weaker
Substance: Tau (2N4R Tau; Tau(291–391)) 291-391 (from UniProt P10636-8) pS356 Tau(291–391)
